Assays:
[1] = biological target: ORF0657n on the cell surface of S. aureus (S. aureus, UniProt A5IS15 41-613); test: cell-based or functional assay
[2] = biological target: T1, ORF0657n [255-375] (CNBr fragment of ORF0657t, SDS PAGE band 9) (S. aureus, UniProt A5IS15 255-375); test: Western blot of CNBr fragments of ORF0657t, column Western negative, band 9
T1 construct: Limits as printed; also called 13 kDa band

[3] = biological target: T2, ORF0657n [375-486] (CNBr fragment of ORF0657t, SDS PAGE band 9) (S. aureus, UniProt A5IS15 375-486); test: as above
T2 construct: Limits as printed; also called 13 kDa band

[4] = biological target: T3, ORF0657n [255-486] (CNBr fragment of ORF0657t, SDS PAGE band 7) (S. aureus, UniProt A5IS15 255-486); test: Western blot of CNBr fragments of ORF0657t, column Western negative, band 7
T3 construct: also called 26 kDa band

[5] = biological target: T4, ORF0657n [42-254] (CNBr fragment of ORF0657t, SDS PAGE band 7) (S. aureus, UniProt A5IS15 42-254); test: as above
T4 construct: also called 26 kDa band
T4 sequence: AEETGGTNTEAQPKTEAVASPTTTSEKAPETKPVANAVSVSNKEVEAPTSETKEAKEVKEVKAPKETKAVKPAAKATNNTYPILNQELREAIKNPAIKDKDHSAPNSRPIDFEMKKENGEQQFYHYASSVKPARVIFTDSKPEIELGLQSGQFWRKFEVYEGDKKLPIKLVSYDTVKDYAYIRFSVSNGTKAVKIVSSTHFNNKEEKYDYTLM

[6] = biological target: T5, ORF0657n [156-254] (CNBr fragment of ORF0657t, SDS PAGE bands 9 and 10) (S. aureus, UniProt A5IS15 156-254); test: Western blot of CNBr fragments of ORF0657t, column Western negative, bands 9 and 10
T5 construct: Limits as printed; also called 13 kDa band; 10 kDa band
T5 sequence: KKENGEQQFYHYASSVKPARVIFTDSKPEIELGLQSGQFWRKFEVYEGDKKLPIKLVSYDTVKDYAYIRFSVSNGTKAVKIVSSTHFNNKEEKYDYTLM

[7] = biological target: T6, ORF0657n [343-486] (CNBr fragment of ORF0657t, SDS PAGE band 8) (S. aureus, UniProt A5IS15 343-486); test: Western blot of CNBr fragments of ORF0657t, column Western negative, band 8
T6 construct: Limits as printed; also called 16 kDa band

[8] = biological target: T7, ORF0657n [254-396] (CNBr fragment of ORF0657t, SDS PAGE band 8) (S. aureus, UniProt A5IS15 254-396); test: as above
T7 construct: Limits as printed; also called 16 kDa band

[9] = biological target: T8, ORF0657n [254-384] (CNBr fragment of ORF0657t, SDS PAGE band 8) (S. aureus, UniProt A5IS15 254-384); test: as above
T8 construct: Limits as printed; also called 16 kDa band

[10] = biological target: T9, ORF0657n [397-486] (CNBr fragment of ORF0657t, SDS PAGE band 10) (S. aureus, UniProt A5IS15 397-486); test: Western blot of CNBr fragments of ORF0657t, column Western negative, band 10
T9 construct: Limits as printed; also called 10 kDa band

[11] = biological target: T10, ORF0657n [255-342] (CNBr fragment of ORF0657t, SDS PAGE band 10) (S. aureus, UniProt A5IS15 255-342); test: as above
T10 construct: Limits as printed; also called 10 kDa band
T10 sequence: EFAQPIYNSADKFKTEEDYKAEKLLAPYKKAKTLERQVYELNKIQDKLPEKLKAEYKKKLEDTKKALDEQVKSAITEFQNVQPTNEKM

T8 sequence (A5IS15 254-384): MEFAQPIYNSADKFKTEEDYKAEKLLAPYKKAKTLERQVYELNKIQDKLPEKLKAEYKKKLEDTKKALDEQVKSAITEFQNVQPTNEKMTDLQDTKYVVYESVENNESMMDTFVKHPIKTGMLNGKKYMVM
Sequence of ORF0657n on the cell surface of S. aureus (A5IS15 41-613 limits assumed): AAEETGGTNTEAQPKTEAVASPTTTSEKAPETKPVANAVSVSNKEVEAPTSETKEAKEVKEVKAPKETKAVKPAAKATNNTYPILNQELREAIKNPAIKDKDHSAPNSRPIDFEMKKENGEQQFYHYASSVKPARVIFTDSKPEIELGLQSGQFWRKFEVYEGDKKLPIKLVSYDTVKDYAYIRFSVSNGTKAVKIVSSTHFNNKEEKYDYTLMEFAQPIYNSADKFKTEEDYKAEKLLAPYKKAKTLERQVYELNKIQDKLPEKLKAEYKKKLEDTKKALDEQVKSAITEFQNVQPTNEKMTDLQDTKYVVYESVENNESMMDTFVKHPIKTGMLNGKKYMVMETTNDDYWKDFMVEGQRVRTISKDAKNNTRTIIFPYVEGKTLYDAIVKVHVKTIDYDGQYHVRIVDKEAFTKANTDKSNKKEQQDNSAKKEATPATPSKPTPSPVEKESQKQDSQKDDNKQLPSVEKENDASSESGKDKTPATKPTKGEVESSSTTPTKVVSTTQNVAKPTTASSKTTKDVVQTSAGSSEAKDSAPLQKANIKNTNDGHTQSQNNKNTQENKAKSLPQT
T9 sequence (A5IS15 397-486): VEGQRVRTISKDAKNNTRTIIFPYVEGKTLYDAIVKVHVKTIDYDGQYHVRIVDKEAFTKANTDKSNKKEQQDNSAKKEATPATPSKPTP
T2 sequence (A5IS15 375-486): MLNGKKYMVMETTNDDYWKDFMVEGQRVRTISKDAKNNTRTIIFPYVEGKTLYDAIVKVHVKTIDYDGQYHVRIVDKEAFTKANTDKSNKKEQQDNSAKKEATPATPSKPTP
T6 sequence (A5IS15 343-486): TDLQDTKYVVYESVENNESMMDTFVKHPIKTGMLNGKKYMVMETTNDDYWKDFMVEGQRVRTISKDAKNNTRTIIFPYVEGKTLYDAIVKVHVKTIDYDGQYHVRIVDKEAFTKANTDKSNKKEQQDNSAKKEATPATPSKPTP
T7 sequence (A5IS15 254-396): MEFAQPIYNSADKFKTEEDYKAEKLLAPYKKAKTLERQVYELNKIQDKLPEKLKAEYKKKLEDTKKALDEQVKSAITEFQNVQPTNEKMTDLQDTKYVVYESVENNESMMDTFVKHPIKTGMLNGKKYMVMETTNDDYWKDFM

B1: mAb CS-D7 (antibody, human IgG1, kappa, V domains shown)
VH: QVQLQESGPGLVKPSETLSLTCTVSGGSIRSSSYYWGWFRQTPGKGLEWLGNVFFSGSAYYNPSLKNRVTISIDTSENQSSLKLTSVTAADTAVYYCARPQAYSHDSSGHSPFDLWGRGTLVTVSS
VL: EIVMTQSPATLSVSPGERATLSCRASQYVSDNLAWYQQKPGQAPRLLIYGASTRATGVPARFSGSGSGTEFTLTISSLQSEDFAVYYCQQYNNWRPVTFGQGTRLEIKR
notes: also called D7 IgG; full length IgG CS-D7
no binding: binding result [2] | binding result [3] | binding result [4] | binding result [5] | binding result [6] | binding result [7] | binding result [8] | binding result [9] | binding result [10] | binding result [11]
~0.02 ug mAb: EC50 (read off the curve) [1]

— patent US20100166772A1 (published 2010)
